Assay results taken from the RNAGym collection of RNA variant scans (doi:10.1021/acssynbio.7b00057).

B1: Pistol ribozyme (parent)
chain: GGGUCGUUGUUCCAUAAUCGCGUGGAUAUGGCACGCAAGUUUCUACCGGGCACCGUAAAUGUCCGACUGGAGCCGUUCGGGCGGCUAUAAACAGACCUCAGGCCCGAAGCGUGGCGGCACCUGCCGCCGGUGGUAAAAAAGAUCGGAAGAGCACACGUCU

Variants of: B1
Test: aptazyme ON/OFF ratio, guanine; higher = stronger switching; co-transcriptional cleavage with and without guanine

Variant | aptazyme ON/OFF ratio
GGGUCGUGCGCGCAUAAUCGCGUGGAUAUGGCACGCAAGUUUCUACCGGGCACCGUAAAUGUCCGACUGGAGCCGUUCGGGCGGCUAUAAACAGACCUCAGGCCCGAAGCGUGGCGGCACCUGCCGCCGGUGGUAAAAAAGAUCGGAAGAGCACACGUCU [U8G G9C U10G U11C C12G] | 1.03
GGGUCGUGCGCUCAUAAUCGCGUGGAUAUGGCACGCAAGUUUCUACCGGGCACCGUAAAUGUCCGACUGGAGCCGUUCGGGCGGCUAUAAACAGACCUCAGGCCCGAAGCGUGGCGGCACCUGCCGCCGGUGGUAAAAAAGAUCGGAAGAGCACACGUCU [U8G G9C U10G U11C C12U] | 1.03
GGGUCGUGCGCACAUAAUCGCGUGGAUAUGGCACGCAAGUUUCUACCGGGCACCGUAAAUGUCCGACUGGAGCCGUUCGGGCGGCUAUAAACAGACCUCAGGCCCGAAGCGUGGCGGCACCUGCCGCCGGUGGUAAAAAAGAUCGGAAGAGCACACGUCU [U8G G9C U10G U11C C12A] | 1.05
GGGUCGUGCGACUAUAAUCGCGUGGAUAUGGCACGCAAGUUUCUACCGGGCACCGUAAAUGUCCGACUGGAGCCGUUCGGGCGGCUAUAAACAGACCUCAGGCCCGAAGCGUGGCGGCACCUGCCGCCGGUGGUAAAAAAGAUCGGAAGAGCACACGUCU [U8G G9C U10G U11A C13U] | 1.06
GGGUCGUGCGACAAUAAUCGCGUGGAUAUGGCACGCAAGUUUCUACCGGGCACCGUAAAUGUCCGACUGGAGCCGUUCGGGCGGCUAUAAACAGACCUCAGGCCCGAAGCGUGGCGGCACCUGCCGCCGGUGGUAAAAAAGAUCGGAAGAGCACACGUCU [U8G G9C U10G U11A C13A] | 1.05
GGGUCGUGCGACGAUAAUCGCGUGGAUAUGGCACGCAAGUUUCUACCGGGCACCGUAAAUGUCCGACUGGAGCCGUUCGGGCGGCUAUAAACAGACCUCAGGCCCGAAGCGUGGCGGCACCUGCCGCCGGUGGUAAAAAAGAUCGGAAGAGCACACGUCU [U8G G9C U10G U11A C13G] | 1.03
GGGUCGUGCGCUAAUAAUCGCGUGGAUAUGGCACGCAAGUUUCUACCGGGCACCGUAAAUGUCCGACUGGAGCCGUUCGGGCGGCUAUAAACAGACCUCAGGCCCGAAGCGUGGCGGCACCUGCCGCCGGUGGUAAAAAAGAUCGGAAGAGCACACGUCU [U8G G9C U10G U11C C12U C13A] | 1.03
GGGUCGUGCGCAUAUAAUCGCGUGGAUAUGGCACGCAAGUUUCUACCGGGCACCGUAAAUGUCCGACUGGAGCCGUUCGGGCGGCUAUAAACAGACCUCAGGCCCGAAGCGUGGCGGCACCUGCCGCCGGUGGUAAAAAAGAUCGGAAGAGCACACGUCU [U8G G9C U10G U11C C12A C13U] | 1.03
GGGUCGUGCGCAAAUAAUCGCGUGGAUAUGGCACGCAAGUUUCUACCGGGCACCGUAAAUGUCCGACUGGAGCCGUUCGGGCGGCUAUAAACAGACCUCAGGCCCGAAGCGUGGCGGCACCUGCCGCCGGUGGUAAAAAAGAUCGGAAGAGCACACGUCU [U8G G9C U10G U11C C12A C13A] | 1.04
GGGUCGUGCGCAGAUAAUCGCGUGGAUAUGGCACGCAAGUUUCUACCGGGCACCGUAAAUGUCCGACUGGAGCCGUUCGGGCGGCUAUAAACAGACCUCAGGCCCGAAGCGUGGCGGCACCUGCCGCCGGUGGUAAAAAAGAUCGGAAGAGCACACGUCU [U8G G9C U10G U11C C12A C13G] | 1.04
GGGUCGUGCGAUCAUAAUCGCGUGGAUAUGGCACGCAAGUUUCUACCGGGCACCGUAAAUGUCCGACUGGAGCCGUUCGGGCGGCUAUAAACAGACCUCAGGCCCGAAGCGUGGCGGCACCUGCCGCCGGUGGUAAAAAAGAUCGGAAGAGCACACGUCU [U8G G9C U10G U11A C12U] | 1.07
GGGUCGUGCGCGGAUAAUCGCGUGGAUAUGGCACGCAAGUUUCUACCGGGCACCGUAAAUGUCCGACUGGAGCCGUUCGGGCGGCUAUAAACAGACCUCAGGCCCGAAGCGUGGCGGCACCUGCCGCCGGUGGUAAAAAAGAUCGGAAGAGCACACGUCU [U8G G9C U10G U11C C12G C13G] | 1.05
GGGUCGUGCGCGAAUAAUCGCGUGGAUAUGGCACGCAAGUUUCUACCGGGCACCGUAAAUGUCCGACUGGAGCCGUUCGGGCGGCUAUAAACAGACCUCAGGCCCGAAGCGUGGCGGCACCUGCCGCCGGUGGUAAAAAAGAUCGGAAGAGCACACGUCU [U8G G9C U10G U11C C12G C13A] | 1.08
GGGUCGUGCGCGUAUAAUCGCGUGGAUAUGGCACGCAAGUUUCUACCGGGCACCGUAAAUGUCCGACUGGAGCCGUUCGGGCGGCUAUAAACAGACCUCAGGCCCGAAGCGUGGCGGCACCUGCCGCCGGUGGUAAAAAAGAUCGGAAGAGCACACGUCU [U8G G9C U10G U11C C12G C13U] | 1.08
GGGUCGUGCGAUAAUAAUCGCGUGGAUAUGGCACGCAAGUUUCUACCGGGCACCGUAAAUGUCCGACUGGAGCCGUUCGGGCGGCUAUAAACAGACCUCAGGCCCGAAGCGUGGCGGCACCUGCCGCCGGUGGUAAAAAAGAUCGGAAGAGCACACGUCU [U8G G9C U10G U11A C12U C13A] | 1.16
GGGUCGUGCGAUGAUAAUCGCGUGGAUAUGGCACGCAAGUUUCUACCGGGCACCGUAAAUGUCCGACUGGAGCCGUUCGGGCGGCUAUAAACAGACCUCAGGCCCGAAGCGUGGCGGCACCUGCCGCCGGUGGUAAAAAAGAUCGGAAGAGCACACGUCU [U8G G9C U10G U11A C12U C13G] | 1.15
GGGUCGUGCGAUUAUAAUCGCGUGGAUAUGGCACGCAAGUUUCUACCGGGCACCGUAAAUGUCCGACUGGAGCCGUUCGGGCGGCUAUAAACAGACCUCAGGCCCGAAGCGUGGCGGCACCUGCCGCCGGUGGUAAAAAAGAUCGGAAGAGCACACGUCU [U8G G9C U10G U11A C12U C13U] | 1.12
GGGUCGUGCGCCCAUAAUCGCGUGGAUAUGGCACGCAAGUUUCUACCGGGCACCGUAAAUGUCCGACUGGAGCCGUUCGGGCGGCUAUAAACAGACCUCAGGCCCGAAGCGUGGCGGCACCUGCCGCCGGUGGUAAAAAAGAUCGGAAGAGCACACGUCU [U8G G9C U10G U11C] | 1.03
